Measured values as given in paper PMC6925226.
Several values for one entry are separate records, joined by “and”; a condition that tells them apart may be missing. Equal values may be shown once.

Assays:
[1] = target: HML2 CA^rec C-terminal domain (CA^rec-CTD, P156-Q246) (human endogenous retrovirus HML2 (HERV-K), consensus); assay: AUC; sedimentation equilibrium, 20 mM Tris-HCl pH 8, 150 mM NaCl, 0.5 mM TCEP; 50-200 µM protein, three speeds; global fit to a monomer-dimer equilibrium (monomer to dimer); MSTAR analysis at 200 µM
[2] = target: HML2 CA^rec C-terminal domain (CA^rec-CTD, P156-Q246) (human endogenous retrovirus HML2 (HERV-K), consensus); assay: solution NMR structure (inter-molecular filtered NOEs); 298 K, 20 mM Tris-HCl, 50 mM NaCl, 0.5 mM TCEP, pH 7.0; asymmetrically labelled dimer from equimolar unlabelled and 13C/15N-labelled CA^rec-CTD, 2 mM total protein
[3] = target: HML2 CA^rec (consensus HML2 capsid protein, P1-Q246) (human endogenous retrovirus HML2 (HERV-K), consensus); assay: cryo-EM structure; single-particle reconstruction of particles assembled in vitro at 1.4 M NaCl, 10 mg/mL, 4 °C, 1 h; T = 1, D5, D6 and T = 3 shells

Substance	Ka [1] [M⁻¹]	stoichiometry N [2]	stoichiometry N [3]
HML2 CA^rec C-terminal domain (CA^rec-CTD, P156-Q246) (domain or fragment)	3600	2	
HML2 CA^rec (consensus HML2 capsid protein, P1-Q246) (natural protein)			5 and 6
